# Experimental data reported in paper PMC13539869, “Dpb11 facilitates the colocalization of Mec1-Ddc2 with its activators on gapped DNA” (Cell reports, 2026).
# How the values were obtained:
# [1] = tested on: Dpb11;Mec1;Ddc2;RPA (Saccharomyces cerevisiae;Saccharomyces cerevisiae;Saccharomyces cerevisiae;Saccharomyces cerevisiae); assay: single-molecule fluorescence (C-Trap kymographs); conditions: 5' dual-biotin at both ends; Imaging: 25 mM Tris-HCl pH 7.5, 100 mM NaCl, 10 mM Mg acetate, 2 mM TCEP, 0.1 mM EDTA, 0.04 mg/mL BSA, 1% glycerol, oxygen scavengers; room temperature, no …; scale: % of Mec1-Ddc2 binding events at gap junctions
# [2] = tested on: Dpb11;RPA (Saccharomyces cerevisiae;Saccharomyces cerevisiae); assay: single-molecule fluorescence (C-Trap kymographs); conditions: 5' dual-biotin at both ends; Imaging: 25 mM Tris-HCl pH 7.5, 100 mM NaCl, 10 mM Mg acetate, 2 mM TCEP, 0.1 mM EDTA, 0.04 mg/mL BSA, 1% glycerol, oxygen scavengers; room temperature, no …
# [3] = biological target: T1, Sc Dpb11 recombinant protein (unlabeled) (S. cerevisiae), P47027; assay: mass photometry; 150 nM Dpb11, label-free, MP Buffer (25 mM Tris-HCl pH 7.5, 250 mM NaCl, 10 mM Mg(CH3COO)2, 2 mM TCEP, 0.1 mM EDTA, 4% glycerol); monomer and dimer; conditions: remark: other sources report otherwise
# T1 chain: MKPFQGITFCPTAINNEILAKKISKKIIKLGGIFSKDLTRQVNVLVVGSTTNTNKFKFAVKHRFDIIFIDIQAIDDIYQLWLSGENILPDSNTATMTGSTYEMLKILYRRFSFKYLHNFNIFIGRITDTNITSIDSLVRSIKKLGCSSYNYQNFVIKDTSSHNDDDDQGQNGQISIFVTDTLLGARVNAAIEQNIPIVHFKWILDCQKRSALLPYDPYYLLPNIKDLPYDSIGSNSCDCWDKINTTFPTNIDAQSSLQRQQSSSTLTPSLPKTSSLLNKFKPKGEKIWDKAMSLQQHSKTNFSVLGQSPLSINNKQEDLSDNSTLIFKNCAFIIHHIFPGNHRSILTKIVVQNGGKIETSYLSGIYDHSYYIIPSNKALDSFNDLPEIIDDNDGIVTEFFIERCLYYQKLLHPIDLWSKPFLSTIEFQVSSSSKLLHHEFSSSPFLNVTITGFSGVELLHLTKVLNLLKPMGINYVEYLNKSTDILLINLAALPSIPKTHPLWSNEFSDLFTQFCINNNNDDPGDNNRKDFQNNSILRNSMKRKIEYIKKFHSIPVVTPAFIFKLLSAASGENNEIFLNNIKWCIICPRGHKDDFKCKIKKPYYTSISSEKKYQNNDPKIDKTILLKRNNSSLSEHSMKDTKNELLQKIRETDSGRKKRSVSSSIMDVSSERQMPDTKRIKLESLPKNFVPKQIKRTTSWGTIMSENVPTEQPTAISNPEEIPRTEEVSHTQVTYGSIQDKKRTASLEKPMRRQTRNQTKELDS
# [4] = biological target: T1, Sc Dpb11 recombinant protein …; assay: mass photometry; 50 nM Dpb11, label-free, MP Buffer (25 mM Tris-HCl pH 7.5, 250 mM NaCl, 10 mM Mg(CH3COO)2, 2 mM TCEP, 0.1 mM EDTA, 4% glycerol); monomer and dimer; conditions: remark: other sources report otherwise
# [5] = biological target: T2, Mec1-Ddc2^LD555 (Mec1(b)-Ddc2 labeled with LD555) (S. cerevisiae, UniProt P38111 1-2368; Q04377 1-747, fluorophore LD555 (NHS ester) at the N-terminal amine of Mec1-Ddc2; which chain is not told | fluorophore LD555 (NHS ester) at the N-terminal amine of Mec1-Ddc2; which chain is not told); assay: single-molecule fluorescence imaging (C-Trap, optical tweezers with confocal microscopy); 30 nM fluorescent Mec1-Ddc2, 200 nM unlabeled Dpb11 and 100 nM unlabeled RPA on 3 kb-gapped DNA; distribution of initial binding positions of Mec1-Ddc2; SM Buffer, room temperature, no flow; conditions: both partners purified
# T2 construct: Mec1, S. cerevisiae; gene synthesized by Biomatik; Ddc2, S. cerevisiae; gene by PCR from genomic DNA of strain S288C; also called fluorescent Mec1-Ddc2; Sc Mec1(b)-Ddc2 recombinant protein; copies: 2 + 2
# [6] = biological target: T3, Mec1-Ddc2^AF647 (Mec1(a)-Ddc2 labeled with Alexa Fluor 647) (S. cerevisiae, UniProt P38111 1-2368; Q04377 1-747, fluorophore AF647 (NHS ester) at the N-terminal amine of Mec1-Ddc2; which chain is not told | fluorophore AF647 (NHS ester) at the N-terminal amine of Mec1-Ddc2; which chain is not told); assay: as above; conditions: both partners purified
# T3 construct: Mec1, S. cerevisiae; gene synthesized by Biomatik; Ddc2, S. cerevisiae; gene by PCR from genomic DNA of strain S288C; Only the Mec1(b) plasmid was deposited (Addgene 240737); Mec1(a) differs in the C-terminal tag region; also called Sc Mec1(a)-Ddc2 recombinant protein; copies: 2 + 2
# [7] = biological target: T2, Mec1-Ddc2^LD555 (Mec1(b)-Ddc2 labeled …); assay: single-molecule fluorescence imaging, dual-color colocalization (C-Trap); 10 nM Mec1-Ddc2^LD555, 20 nM Dpb11^LD655, 180 nM unlabeled Dpb11 and 100 nM unlabeled RPA on 3 kb-gapped DNA; SM Buffer, room temperature, no flow; conditions: both partners purified
molecule,measurement,setting,value
3 kb-gapped 19 kb DNA,binding signal,[1],50
same,binding signal (% of binding events at gap junctions),[2],53
"Sc Dpb11 recombinant protein (unlabeled), P47027 1-764 (natural protein) MKPFQGITFCPTAINNEILAKKISKKIIKLGGIFSKDLTRQVNVLVVGSTTNTNKFKFAVKHRFDIIFIDIQAIDDIYQLWLSGENILPDSNTATMTGSTYEMLKILYRRFSFKYLHNFNIFIGRITDTNITSIDSLVRSIKKLGCSSYNYQNFVIKDTSSHNDDDDQGQNGQISIFVTDTLLGARVNAAIEQNIPIVHFKWILDCQKRSALLPYDPYYLLPNIKDLPYDSIGSNSCDCWDKINTTFPTNIDAQSSLQRQQSSSTLTPSLPKTSSLLNKFKPKGEKIWDKAMSLQQHSKTNFSVLGQSPLSINNKQEDLSDNSTLIFKNCAFIIHHIFPGNHRSILTKIVVQNGGKIETSYLSGIYDHSYYIIPSNKALDSFNDLPEIIDDNDGIVTEFFIERCLYYQKLLHPIDLWSKPFLSTIEFQVSSSSKLLHHEFSSSPFLNVTITGFSGVELLHLTKVLNLLKPMGINYVEYLNKSTDILLINLAALPSIPKTHPLWSNEFSDLFTQFCINNNNDDPGDNNRKDFQNNSILRNSMKRKIEYIKKFHSIPVVTPAFIFKLLSAASGENNEIFLNNIKWCIICPRGHKDDFKCKIKKPYYTSISSEKKYQNNDPKIDKTILLKRNNSSLSEHSMKDTKNELLQKIRETDSGRKKRSVSSSIMDVSSERQMPDTKRIKLESLPKNFVPKQIKRTTSWGTIMSENVPTEQPTAISNPEEIPRTEEVSHTQVTYGSIQDKKRTASLEKPMRRQTRNQTKELDS",percent of particles as dimer,[3],98%
same,stoichiometry N,[3],2
same,percent of particles as dimer,[4],64%
same,percent of particles as monomer,[4],35%
same,stoichiometry N,[4],2
"Sc Dpb11 recombinant protein (unlabeled) (natural protein, S. cerevisiae, UniProt P47027 1-764, looked up, Dpb11, S. cerevisiae strain S288C gene; Eluted from the beads with 3xFLAG peptide; no removal of the tag is described; By mass photometry a mixture of monomer and dimer; also called unlabeled Dpb11) MKPFQGITFCPTAINNEILAKKISKKIIKLGGIFSKDLTRQVNVLVVGSTTNTNKFKFAVKHRFDIIFIDIQAIDDIYQLWLSGENILPDSNTATMTGSTYEMLKILYRRFSFKYLHNFNIFIGRITDTNITSIDSLVRSIKKLGCSSYNYQNFVIKDTSSHNDDDDQGQNGQISIFVTDTLLGARVNAAIEQNIPIVHFKWILDCQKRSALLPYDPYYLLPNIKDLPYDSIGSNSCDCWDKINTTFPTNIDAQSSLQRQQSSSTLTPSLPKTSSLLNKFKPKGEKIWDKAMSLQQHSKTNFSVLGQSPLSINNKQEDLSDNSTLIFKNCAFIIHHIFPGNHRSILTKIVVQNGGKIETSYLSGIYDHSYYIIPSNKALDSFNDLPEIIDDNDGIVTEFFIERCLYYQKLLHPIDLWSKPFLSTIEFQVSSSSKLLHHEFSSSPFLNVTITGFSGVELLHLTKVLNLLKPMGINYVEYLNKSTDILLINLAALPSIPKTHPLWSNEFSDLFTQFCINNNNDDPGDNNRKDFQNNSILRNSMKRKIEYIKKFHSIPVVTPAFIFKLLSAASGENNEIFLNNIKWCIICPRGHKDDFKCKIKKPYYTSISSEKKYQNNDPKIDKTILLKRNNSSLSEHSMKDTKNELLQKIRETDSGRKKRSVSSSIMDVSSERQMPDTKRIKLESLPKNFVPKQIKRTTSWGTIMSENVPTEQPTAISNPEEIPRTEEVSHTQVTYGSIQDKKRTASLEKPMRRQTRNQTKELDS",binding result,[5],binds
same,binding result,[6],binds
"Dpb11^LD655 (natural protein, S. cerevisiae, UniProt P47027 1-764, looked up, fluorophore LD655 (NHS ester) at the N-terminal amine, Dpb11, S. cerevisiae strain S288C gene; Same protein as m1, labeled; In the dual-color experiment 20 nM of it stood with 180 nM unlabeled Dpb11; also called fluorescent Dpb11; Dpb11 labeled with LD655; source: S. cerevisiae strain OY001, GAL1/10 overexpression, purified (FLAG-Ab beads), then labeled with LD655 NHS) MKPFQGITFCPTAINNEILAKKISKKIIKLGGIFSKDLTRQVNVLVVGSTTNTNKFKFAVKHRFDIIFIDIQAIDDIYQLWLSGENILPDSNTATMTGSTYEMLKILYRRFSFKYLHNFNIFIGRITDTNITSIDSLVRSIKKLGCSSYNYQNFVIKDTSSHNDDDDQGQNGQISIFVTDTLLGARVNAAIEQNIPIVHFKWILDCQKRSALLPYDPYYLLPNIKDLPYDSIGSNSCDCWDKINTTFPTNIDAQSSLQRQQSSSTLTPSLPKTSSLLNKFKPKGEKIWDKAMSLQQHSKTNFSVLGQSPLSINNKQEDLSDNSTLIFKNCAFIIHHIFPGNHRSILTKIVVQNGGKIETSYLSGIYDHSYYIIPSNKALDSFNDLPEIIDDNDGIVTEFFIERCLYYQKLLHPIDLWSKPFLSTIEFQVSSSSKLLHHEFSSSPFLNVTITGFSGVELLHLTKVLNLLKPMGINYVEYLNKSTDILLINLAALPSIPKTHPLWSNEFSDLFTQFCINNNNDDPGDNNRKDFQNNSILRNSMKRKIEYIKKFHSIPVVTPAFIFKLLSAASGENNEIFLNNIKWCIICPRGHKDDFKCKIKKPYYTSISSEKKYQNNDPKIDKTILLKRNNSSLSEHSMKDTKNELLQKIRETDSGRKKRSVSSSIMDVSSERQMPDTKRIKLESLPKNFVPKQIKRTTSWGTIMSENVPTEQPTAISNPEEIPRTEEVSHTQVTYGSIQDKKRTASLEKPMRRQTRNQTKELDS",binding result,[7],binds
